Assay: yeast display, Sf9 membrane polyspecificity reagent, FACS + sequencing; frameworks hold sequencing errors
How it was run: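 A synthetic nanobody library was expressed on Saccharomyces cerevisiae BJ5465 by galactose induction for 36–48 hours. The library was stained for 1 hour at 4 °C with 10% biotinylated, detergent-solubilized Sf9 membrane reagent and enriched with streptavidin microbeads before FACS. Low and high (top ~1%) gates were set on anti-HA fluorescence for expression and streptavidin fluorescence for reagent binding, and each polyreactivity label reflects the gate of origin.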
For “QFQLVESGGGVVQAPGSLRLSSAASGSLFTVYAMGWYRQAPGKERELVAAISYGGGSTYYADSVKGRFTISRDTAKNTVYLQMNSLKQEDTAVYYCAADPYYSYGYYHAHGRDVGYWGQGTQVTVSS”, the “polyreactivity (PSR sort gate)” value was “low polyreactivity”.
In the case of “QFQLVESGRGLVQAGGSLRLSCAASGSTILYYAMGWYRQAPGTERELVAAISSSDGSTYYADSVKGRFTISRDNAKYTVYLQMNSLKPEDTAVYYCNADFYWGYNYWGQGTQVTVSS”, the “polyreactivity (PSR sort gate)” value is reported as “high polyreactivity”.
With “QFQLVESVGGLVQAGGSLRLSCAASGRTFVDYDMGCYRPAPGKERELVAAIRRGGSTTYEDSVKGRFTISRDNAKNTVYLQMNSLKPEDTAVYYCATDNTYGSDYWGQGTQVTVSW” the “polyreactivity (PSR sort gate)” value was “high polyreactivity”.
For “QFQLVESVGGLVQAGGSLRLSLASSGSIFGPNTMGWYRQAPGKERELVAAIRGGGSTNYADSVKGRFTISRDNAKNTVYLQMNSLKPEDTAVYYCNATWNLFPGFLDRYDYWGQGTQVTVSS”, the “polyreactivity (PSR sort gate)” value was “low polyreactivity”.
For “QFQLVETVGGLVQAGGSLRLSCAASGFTYKSYAMGWYCQAPVKERELVASISRRGGSTYYADSVKGRFTISRDNAKNNVYLQMNSLKPEDTAVYYCNKYFRYRGDYDYWGQGTQVTVSS”, the “polyreactivity (PSR sort gate)” value was “high polyreactivity”.
For “QGHLDESGGGIVQAGGSLRLSCAASGITVVTYAMGWYRQAPGKERELVAAISRSGGRTYYADSVKGRFTISRDNAKNTVYLLMNSLKPEDTAVYYCAAERKNKYDYWGQGTQVTVSS”, the “polyreactivity (PSR sort gate)” value was “high polyreactivity”.
For “QGHREESGGGLVQAGGSLRLSCAASGSTFGIYALGWYIQEQGKERELVAAITWSGSSTYYADSVKGRFTISRDNAKNNVYLQINSLKPEDTAVYYCAAEDTLYEYYYWGQGTQVTVSS”, the “polyreactivity (PSR sort gate)” value was “high polyreactivity”.
With “QGKLVESGGGLVQAGGSLRLTCPASGSIFRLNTMGWYRQAPGKEREFVAAISKGGTSTYYADSVKGRFTISRDNAKNTVYLQLTSLIPEDTAVYYCARKRYPSAPFQYDYWGQGTQVTVSS” the “polyreactivity (PSR sort gate)” value was “high polyreactivity”.
In the case of “QGQLEESGGGLFQAGGSLRLSCAASGRIFLYNGMGWYRQAPGKERELVAGITTGGNTNYADSVKGRFTISRDNAKNTVYLQMNSLKPEDTAVYYCAAEVIVYGWSPDYDYWGQGTQVTVSS”, the “polyreactivity (PSR sort gate)” value is reported as “low polyreactivity”.
For “QGQLGESGGGLVQAGGSLRLSCAASGIIFTWYVMGWYRQAPGKERELVAAISASGASTYYADSVKGRFTISRDNAKNTVYLQMHSLNPEDPAVNYCNRYPTDGRTSYVTYYYWGQGTQVTVSS”, the “polyreactivity (PSR sort gate)” value was “high polyreactivity”.
In the case of “QGQLGEYGGGLVQAGGSLRLSCAAYGRTVYYYAMGWYRQEPGKDREFVAGITATGSSTYYADSVKGRFTISRDNAKNTVYLQMNSLKPEDTAVYFCAADRYTTYSGQWSYPYDYWGQGTQVTVSS”, the “polyreactivity (PSR sort gate)” value is reported as “low polyreactivity”.
In the case of “QGQLQESGGGLVQAAGSLRMSCAASGTIFSEANMGWYRQAPGQVRELVATIGQGSTTNYADSVKGRFTISRDNAKNTVYLQMISLKPEETGVYYCAVVTVDPVGFVYWGQGTQVTVSS”, the “polyreactivity (PSR sort gate)” value is reported as “low polyreactivity”.
In the case of “QGQLVESAGGLGQAGGSLRLSCAASGRTLGRYVMGWYRQGPGQVRELVAAISARTGSTYYADSVKGRFTISRDNAKNTVYLQMNSLKPEDTAVYYCATKFSSYDTRVSYDYWGQGTQVTVSS”, the “polyreactivity (PSR sort gate)” value is reported as “low polyreactivity”.
In the case of “QGQLVESAGGLVQAAGSLRLSCAASGITFHYYAMGWYRQAPGKERELVAAIDGSDTDTYYADSVKGRFTISRDNAKNTVYLQMNSLKQEDTAVYYCAAEYTYAALARNDDYWGQCTQVTVSS”, the “polyreactivity (PSR sort gate)” value is reported as “high polyreactivity”.
With “QGQLVESAGGLVQAGGSLRLSCAASGSTFDYYTIGWYRQAPGKERELVAAISSSGGSTYYADSVKGRFTISRANAKNTVYLQMNSLKPVDTAVYYCAAKWDWGYGRGFQYGFNYWGQGTQVTVSS” the “polyreactivity (PSR sort gate)” value was “low polyreactivity”.
In the case of “QGQLVESCGGLVQAGGSLLLSCAASGRIFRSYAMGGYRPAPGKERELVASMSTGGSTNYADSVKGRFTFSRDTAKNSGYLQKNRLKPEDTAVYYCAAGPYYKYWGQRYNYWGQGTQVTVSS”, the “polyreactivity (PSR sort gate)” value is reported as “high polyreactivity”.
For “QGQLVESGGALVQAGGTLRLSCAASGIIFSGNGMGWYRQAPGNVRELVAAITAGAGTNYADSVKGRFTISRDNAKNSVYLQMHSLKPEDPGVYYCAVDGRSVPAWWPRFDYWGQGTQVTVSS”, the “polyreactivity (PSR sort gate)” value was “low polyreactivity”.
With “QGQLVESGGCLVQAGGSLRLSCAASGIIFWSYAMGWYRQAPGKERELVAAISRRGGSTSYADSVKGRFTISRDNAKTTVYLQMNSLKPEDTAVYYCAADRYFNPKSYSTEFDYWGQGTQVTVSS” the “polyreactivity (PSR sort gate)” value was “high polyreactivity”.
With “QGQLVESGGGFVQAGGSLRLSCDASGNIFSANAMGWYRQAPWKEREFVAAISSTGGSTYYADSVKGRFTISRDNEMNTLYLQMNCLKPEDTAVYYCAAYIRRYFHYDYWRQGTQVTVSS” the “polyreactivity (PSR sort gate)” value was “high polyreactivity”.
For “QGQLVESGGGIVQAGGSLRLSCAASGFNFWQYAMGLYRQAPGKERELVAAITSSGTSTYYADSVKGLFTISRDNAKNTVYLQMNSLKPEDTAVYSCAADLGYYDLYYWGQGTQVTVSS”, the “polyreactivity (PSR sort gate)” value was “low polyreactivity”.
In the case of “QGQLVESGGGLDQAGVSLRLSCAASGFIFSFDNAMGWYRQAPGTERELVAAISSGTTTHYADSVKGRFTISRDNAKNTVYLQMNSLKPEDSAVYDCAADSVKQVRYGNVGHDDWGQGTQVTVSS”, the “polyreactivity (PSR sort gate)” value is reported as “low polyreactivity”.
In the case of “QGQLVESGGGLVHAGGRLRLSCAASGSTFTTYAMGWYRQAPGTERELVAAISTNGGRTFYADSVKGRFTISRDNAKTTFYLQMNSLKTEDTAVYYCAAQYGLYAPGYYYWGHGTQVTVSS”, the “polyreactivity (PSR sort gate)” value is reported as “low polyreactivity”.

Reference: the nanobody polyreactivity screen of Harvey et al. (2022)
